Data from patent US20070072177A1 (CRUCELL HOLLAND B V, published 2007).

T1: glycoprotein of rabies virus strain CVS-11 (rabies virus strain CVS-11, UniProt O92284 20-524)
T1 sequence: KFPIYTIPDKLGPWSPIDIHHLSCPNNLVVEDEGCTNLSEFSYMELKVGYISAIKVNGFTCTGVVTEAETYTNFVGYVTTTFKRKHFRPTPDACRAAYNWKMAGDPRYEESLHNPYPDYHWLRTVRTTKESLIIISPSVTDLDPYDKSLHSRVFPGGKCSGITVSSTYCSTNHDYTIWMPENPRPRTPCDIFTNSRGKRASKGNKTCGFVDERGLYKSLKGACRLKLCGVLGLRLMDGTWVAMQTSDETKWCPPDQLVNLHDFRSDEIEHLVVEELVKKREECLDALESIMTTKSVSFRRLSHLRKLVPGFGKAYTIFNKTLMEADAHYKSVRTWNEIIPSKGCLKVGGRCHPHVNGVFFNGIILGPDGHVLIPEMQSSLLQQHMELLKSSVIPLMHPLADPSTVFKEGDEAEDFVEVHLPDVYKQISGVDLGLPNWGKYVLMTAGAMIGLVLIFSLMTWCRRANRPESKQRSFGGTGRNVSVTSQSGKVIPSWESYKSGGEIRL


Experiments:
[1] = molecular target: T1, glycoprotein of rabies virus strain …; assay: cell-based or functional assay
[2] = molecular target: purified rabies virus glycoprotein (rabies virus ERA strain) (rabies virus strain ERA, UniProt P03524 20-524); assay: phage ELISA on coated purified G protein (ERA), anti-M13-HRP

Row | Binder | Potency (IU/ml) [1] [IU/ml] | OD 492 nm [2] [OD 492 nm]
1 | SC04-164 (scFv) scFv: AMAEVQLVESGGGVVQPGRSLRLSCAASGFTFSSYGMHWVRQAPGKGLEWVAVISYDGSSKYYADSVKGRFTISRDNSKNTLYLQMNSLRAEDTAVYYCAKGSVLGDAFDIWGQGTMVTVSSGTGGSGGTGSGTGGSTDIQLTQSPSSVSASVGDRVTITCRASQGISSWLAWYQQKPGKAPKLLIYAASSLQSGVPSRFSGSGSGTDFTLTISSLQPEDFATYYCQQANSFPLTFGGGTKVDIKRAAA | 0.3 | 0.547
2 | SC04-031 (scFv) scFv: AMAEVQLVESGGGVVQPGRSLRLSCAASGFTFSSYGMHWVRQAPGKGLEWVAVISYDGSNKYYADSVKGRFTISRDNSKNTLYLQMNSLRAEDTAVYYCAKGSVLGDAFDIWGQGTMVTVSSGTGGSGGTGSGTGGSTDIQMTQSPSFVSASVGDRVTITCRASQGISSWLAWYQQKPGKAPKLLIYAASSLQSGVPSRFSGSGSGTDFTLTISSLQPEDFATYYCQQANSFPLTFGGGTKVEIKRAAA | 0.7 | 0.721
3 | SC04-038 (scFv) scFv: AMAQVQLVQSGGGVVQPGRSLRLSCAASGFTFSSYGMHWVRQAPGKGLEWVAVISYDGSSKYYADSVKGRFTISRDNSKNTLYLQMNSLRAEDTAVYYCAKGSVLGDAFDIWGQGTMVTVSSGTGGSGGTGSGTGGSTDIQLTQSPSSVSASVGDRVTITCRASQGISGWLAWYQQKPEKAPKLLIYAASSLQRGVPSRFSGSGSGTDFTLTISSLQPEDFATYYCQQANSFPPTFGQGTRLEIKRAAA | 2 | 0.653
4 | SC04-103 (scFv) scFv: AMAQVQLQESGGGVVQPGRSLRLSCAASGFTFSSYGMHWVRQAPGKGLEWVAVILYDGSDKYYADSVKGRFTISRDNSKNTLYLQMNSLRAEDTAVYYCAKVAVAGESFDSWGRGTLVTVSSGTGGSGGTGSGTGGSTDIQLTQSPSSVSASVGDRVTITCRASQGISSWLAWYQQKPGKAPRSLIYDASSLQSGVPSRFSGSGSGTDFTLTISSLQPEDFATYYCQQADSFPITFGQGTRLEIKRAAA | 0.3 | 0.606
5 | SC04-040 (scFv) scFv: AMAQVQLVQSGGGVVQPGRSLRLSCAASGFTFGSYGMHWVRQAPGKGLEWVATIFYDGSYKDYADSVKGRFTISRDNSKNTLYLQMNSLRAEDTAVYYCAKGSKVGDFDYWGQGTLVTVSSGTGGSGGTGSGTGGSTQPVLTQPPSVSVAPGQTARISCGGDNIGTNTVQWYQQKPGQAPVLVVYDDSDRPSGIPERFSGSNSGDTATLTISRVEAGDEADYYCQVWDDSSDLVVFGGGTKVTVLGAAA | 0.3 | 0.74
6 | SC04-018 (scFv) scFv: AMAEVQLVESGPGLVRPSGTLSLTCAVSGGSISSSNWWSWVRQPPGKGLEWIGEIYHSGSTNYNPSLKSRVTISVDKSKNQFSLKLSSVTAADTAVYYCARVSVTTGAFNIWGQGTMVTVSSGTGGSGGTGSGTGGSTQPVLTQPLSASGTPGQRVTISCSGDTSNIGSNTVHWYQRLPGTAPKLLIHNNNQRPSGVPDRFSGAKSGTSASLAISGLQSEDEADYFCAAWDDNLNGYVFGTGTKVTVLGAAA | 0.1 | 0.247
7 | SC04-098 (scFv) scFv: AMAEVQLVQSGGGAVQPGRSLRLSCAASGFTFSSYGMHWVRQAPGKGLEWVAVILYDGSDKFYADSVKGRFTISRDNSKNTLYLQMNSLRAEDTAVYYCAKVAVAGTHFDYWGQGTLVTVSSGTGGSGGTGSGTGGSTDIQMTQSPSSLSASVGDRVTITCRASQGIRNDLGWYQQKPGKAPKLLIYAASSLQSGVPSRFSGSGSGTDFTLTISSLQPEDFATYYCQQLNSYPPTFGGGTKVEIKRAAA | 9 | 0.798
8 | SC04-104 (scFv) scFv: AMAQVQLQESGGGVVQPGRSLRLSCAASGFTFSSYGMHWVRQAPGKGLEWVATISYDGNVKDYADSVKGRFTISRDNSKNTLYLQMNSLRTEDTAVYYCAKIVVVTALDAFDIWGQGTMVTVSSGTGGSGGTGSGTGGSTDIQLTQSPSTLSASVGDRVTITCRASQILGHWLPLSWYQQKPGKAPKLLISKASSLESGVPPRFSGSGSGSDFTLTISSLQPDDFATYYCLQYHEYPLTFGGGTKLEIKRAAA | 1 | 0.566
9 | SC04-001 (scFv) scFv: AMAEVQLVESGGGVVRPGGSLRLSCAASGFTFDDYGMSWVRQAPGKGLEWVSGINWNGGSTGYADSVKGRFTISRDNAKNSLYLQMNSLRAEDTAVYYCAKGLYGELFDYWGQGTLVTVSRGGGGSGGGGSGGGGSSELTQDPAVSVALGQTVRITCQGDSLRSYYASWYQQKPGQAPVLVIYGKNNRPSGIPDRFSGSSSGNTASLTITGAQAEDEADYYCNSRDSSGNHVVFGGGTKLTVLGAAA | 1.3 | 0.828
10 | SC04-026 (scFv) scFv: AMAEVQLVESGAEVKKPGESLKISCKGSGYNFPYSWIAWVRQMPGKGLEWMGIIFPGDSDTRYSPPFQGQVTISADNSKSTAYLQWSSLKASDTAMYYCARTSNWNYLDRFDPWGQGTLVTVSSGTGGSGGTGSGTGGSTDVVMTQSPLSLPVTPGEPASISCRSSQSLLHSNGHDYLDWYVQKPGQSPQPLIYLGSDRASGVPDRFSGSGSGTHFTLNISRVEAEDVGVYYCMQSLQTPWTFGQGTKLEIKRAAA | 0.3 | 0.212
11 | SC04-073 (scFv) scFv: AMAQVQLVQSGGGVAQPGRSLRLSCAASGFTFSSYGMHWVRQAPGKGLEWVADISYDGSNKYYADSVKGRFTISRDNSKNTLYLQMNSLRAEDTAVYYCAKDGLDLTGTIQPFGYWGQGTLVTVSSGTGGSGGTGSGTGGSTDIQLTQSPSFLSASVGDRVTITCRASHSISSWLAWYQQKPGKAPKLLIYKASSLESGVPSRFSGSGSGTDFTLTISSLQPEDFATYYCLQDYNYPRTFGQGTKLEIKRAAA | 3 | 0.657
12 | SC04-008 (scFv) scFv: AMAQVTLKESGPTLVKPTQTLTLTCTFSGFSLSTSGVGVGWIRQPPGKALEWLARIDWDDDKYYSTSLKTRLTISKDTSKNQVVLTMTNMDPVDTATYYCARMGFTGTYFDYWGQGTLVTVSSGTGGSGGTGSGTGGSTQAVLTQPSSVSVAPGETASVTCGGDNIGSKSVHWYQKKPGQAPVLVVFDDSDRPSGIPERFSGSTSGNTAALTISRVEAGDEADYYCQVWDSSNDHLYVFGPGTQLTVLSAAA | > 54 | 0.582
13 | SC04-021 (scFv) scFv: AMAEVQLVESGGGVVQPGRSLRLSCAASGFTFSSYGMHWVRQAPGKGLEWVAVISYDGSSKYYADSVKGRFTISRDNSKNTLYLQMNSLRAEDTAVYYCAKGSVLGDAFDIWGQGTMVTVSSGTGGSGGTGSGTGGSTDIQMTQSPFSLSASVGDRVTITCRASQGIGSSLAWYQQKPGKAPKLLIYAASSLQSGVPSRFSGSGSGTDFTLTISSLQPEDFATYFCLQHHDYPLTFGGGTKLEIKRAAA | 1.3 | 0.278
14 | SC04-060 (scFv) scFv: AMAQVQLVESGPGLVKASETLSLTCTVSDGSISSFYWSWIRQPPGKGLEWVGEIQDTGRTNYNPSLKSRVTISLDTSKNQFSLTLSSVTAADTAVYYCAREKEKYSDRSGYSYYYYYMDVWGKGTTVTVSSGTGGSGGTGSGTGGSTDIQMTQSPSSLSASVGDRVTITCRASQGISTYLNWYQQKPGKAPNLLIYGASNLQSGVPSRFSGSESGTDFTLTISSLQPEDFATYYCQQSFTTPRTFGQGTKLEIKRAAA | 0.2 | 0.923
15 | SC04-010 (scFv) scFv: AMAQVQLVQSGGDLVQPGRSLRLSCAASGFTFSSYGMHWVRQAPGKGLEWVADISYDGSNKYYADSVKGRFTISRDNSKNTLYLQMNSLRAEDTAVYYCAKDGLDLTGTIQPFGYWGQGTLVTVSSGTGGSGGTGSGTGGSTDIQMTQSPSSLSASVGDRVTITCRASQGIRNDLGWYQQKPGKAPKLLIYAASSLQSGVPSRFSGSGSGTDFTLTISSLQPEDFATYYCLQDYNYPRTFGQGTKVEIKRAAA | 4 | 0.915
16 | SC04-097 (scFv) scFv: AMAEVQLVQSGGHLVQPGGSLRLSCAASGFTFSSYAMSWVRQAPGKGLEWVSLIIGSGRSTYYADSVKGRFTISRDNSKNTLYLQMNSLRAEDTAVYYCAKTASNLGRGGMDVWGQGTTVTVSSGTGGSGGTGSGTGGSTDIQLTQSPSSLSASVGDRVTITCRASQGISSHLAWYQQKPGKAPKLLIYAASSLQSGVPSRFSGSGSGTEFTLTISSLQPEDFATYYCQQFNSYPITFGQGTRLEIKRAAA | 0.2 | 0.835
17 | scFv SO57 (scFv) scFv: AMAQVQLVQSGAEVKKPGSSVKVSCKASGGTFNRYTVNWVRQAPGQGLEWMGGIIPIFGTANYAQRFQGRLTITADESTSTAYMELSSLRSDDTAVYFCARENLDNSGTYYYFSGWFDPWGQGTLVTVSSGTGGSGGTGSGTGGSTQSALTQPRSVSGSPGQSVTISCTGTSSDIGGYNFVSWYQQHPGKAPKLMIYDATKRPSGVPDRFSGSKSGNTASLTISGLQAEDEADYYCCSYAGDYTPGVVFGGGTKLTVLGAAA |  | 0.65
